The source of these data is the supplement of paper PMC7125110.

Sequences and labels used below:
B1: glmS ribozyme (parent)
chain: AUAAAAGCGCCAGAACUACAGAAAUGUAGUUGACGAGGAGGAGGUUUAUCGAAUUUUCGGCGGAUGCCUCCAAA

± gives the standard error. Variants at the floor of the assay were thinned out.

The first series covers variants of B1. Description: self-cleavage kobs at 2500 uM GlcN6P; higher = faster cleavage; RNA array. The conditions noted are these: with glucosamine-6-phosphate. Summed up: (§1)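 Tiles of sequenced MiSeq chips were imaged over ~14 h at 37 °C. On them, barcoded ribozyme variants had been transcribed in situ by E. coli RNA polymerase and were tracked via a hybridised Cy3 probe while glucosamine-6-phosphate (40 μM to 10 mM) in HEPES/KCl/Mg(OAc)2 buffer flowed in. Per-tile medians, normalised to baseline and to non-cleaving reference variants, were fit to one- or two-exponential decays for kobs, and weighted Michaelis–Menten fits gave kcat and KM.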
As to C8U A15U G32U U46C, the “self-cleavage kobs at 2500 uM GlcN6P” value is less than 1e-05 s⁻¹.

As for U30C U31A A36G C50A U57G, the “self-cleavage kobs at 2500 uM GlcN6P” value was less than 1e-05 s⁻¹.

Turning to A36G U55A U65G, the “self-cleavage kobs at 2500 uM GlcN6P” value was less than 1e-05 s⁻¹.

On to A12G G32C, for which the “self-cleavage kobs at 2500 uM GlcN6P” value is 2.23e-05 ± 9.3e-06 s⁻¹.

Regarding C11U C34U G40C, the “self-cleavage kobs at 2500 uM GlcN6P” value is less than 1e-05 s⁻¹.

For the variant C11U A52G C71A, the “self-cleavage kobs at 2500 uM GlcN6P” value stood at 5.37e-05 ± 2.4e-05 s⁻¹.

For A6C C11U C68U, the “self-cleavage kobs at 2500 uM GlcN6P” value is less than 1e-05 s⁻¹.

For the variant A12C G38A U49C A53C, the “self-cleavage kobs at 2500 uM GlcN6P” value is less than 1e-05 s⁻¹.

Take G35C A36G G40U C70U: the “self-cleavage kobs at 2500 uM GlcN6P” value was less than 1e-05 s⁻¹.

In the case of U45G U49A U55C, the “self-cleavage kobs at 2500 uM GlcN6P” value is less than 1e-05 s⁻¹.

Consider A42U G59U C61G A64U C68A C70G, for which the “self-cleavage kobs at 2500 uM GlcN6P” value was less than 1e-05 s⁻¹.

For A15G G44C, the “self-cleavage kobs at 2500 uM GlcN6P” value was determined as 0.00014 ± 4.2e-05 s⁻¹.

As to C10G G43U A64G, the “self-cleavage kobs at 2500 uM GlcN6P” value is less than 1e-05 s⁻¹.

As for A42G G51C G62A, the “self-cleavage kobs at 2500 uM GlcN6P” value was less than 1e-05 s⁻¹.

With G9C G66C, the “self-cleavage kobs at 2500 uM GlcN6P” value is less than 1e-05 s⁻¹.

On to G9U G35A A36G G63U, for which the “self-cleavage kobs at 2500 uM GlcN6P” value was less than 1e-05 s⁻¹.

On to G9A U31G G40C, for which the “self-cleavage kobs at 2500 uM GlcN6P” value was less than 1e-05 s⁻¹.

For G9C G38A A52U, the “self-cleavage kobs at 2500 uM GlcN6P” value was less than 1e-05 s⁻¹.

On to G29C A48U G60C, for which the “self-cleavage kobs at 2500 uM GlcN6P” value is less than 1e-05 s⁻¹.

In the case of C11G G35C U45G C67A, the “self-cleavage kobs at 2500 uM GlcN6P” value is less than 1e-05 s⁻¹.

In the case of G37U U45G U65G, the “self-cleavage kobs at 2500 uM GlcN6P” value is less than 1e-05 s⁻¹.

With G40U U57A C61G, the “self-cleavage kobs at 2500 uM GlcN6P” value is less than 1e-05 s⁻¹.

Regarding A6U C11A G29A C50U, the “self-cleavage kobs at 2500 uM GlcN6P” value was less than 1e-05 s⁻¹.

Regarding A6G A52C U65G, the “self-cleavage kobs at 2500 uM GlcN6P” value is less than 1e-05 s⁻¹.

With A53G U57A C68A, the “self-cleavage kobs at 2500 uM GlcN6P” value was 4.93e-05 ± 2.2e-05 s⁻¹.

As to G32U C34A G43C C71G, the “self-cleavage kobs at 2500 uM GlcN6P” value was less than 1e-05 s⁻¹.

As to G35C C50A C67G, the “self-cleavage kobs at 2500 uM GlcN6P” value is less than 1e-05 s⁻¹.

C10A G35A A36U: the “self-cleavage kobs at 2500 uM GlcN6P” value is less than 1e-05 s⁻¹.

For A33U G37C G38C G43A G51A, the “self-cleavage kobs at 2500 uM GlcN6P” value was less than 1e-05 s⁻¹.

Consider G13C C58G G59A, for which the “self-cleavage kobs at 2500 uM GlcN6P” value is less than 1e-05 s⁻¹.

Consider C10U G29U G38A, for which the “self-cleavage kobs at 2500 uM GlcN6P” value stood at 0.00158 ± 0.0007 s⁻¹.

On to G9C G41A C70U, for which the “self-cleavage kobs at 2500 uM GlcN6P” value is less than 1e-05 s⁻¹.

As to G13U U47A U56G, the “self-cleavage kobs at 2500 uM GlcN6P” value came to 0.000242 ± 6e-05 s⁻¹.

A15C A36C A48U U57C: the “self-cleavage kobs at 2500 uM GlcN6P” value was less than 1e-05 s⁻¹.

As for A12G A14C A33U C34G G38U, the “self-cleavage kobs at 2500 uM GlcN6P” value is less than 1e-05 s⁻¹.

Regarding G40C G43A A48U A64C U69A, the “self-cleavage kobs at 2500 uM GlcN6P” value was less than 1e-05 s⁻¹.

On to U31G G35C G41A A53U G63A, for which the “self-cleavage kobs at 2500 uM GlcN6P” value is less than 1e-05 s⁻¹.

Regarding U45A G51U U54G G63C, the “self-cleavage kobs at 2500 uM GlcN6P” value was less than 1e-05 s⁻¹.

As for C8A G29C G37C A39U G43A U45G G51A, the “self-cleavage kobs at 2500 uM GlcN6P” value is less than 1e-05 s⁻¹.

Turning to A14U G29U C67U, the “self-cleavage kobs at 2500 uM GlcN6P” value was determined as 9.48e-05 ± 2.4e-05 s⁻¹.

As to G35C A52C C58U, the “self-cleavage kobs at 2500 uM GlcN6P” value was less than 1e-05 s⁻¹.

On to A14C G43C G51A U56G, for which the “self-cleavage kobs at 2500 uM GlcN6P” value is less than 1e-05 s⁻¹.

For the variant A64G C68G C71G, the “self-cleavage kobs at 2500 uM GlcN6P” value was 0.000122 ± 3.9e-05 s⁻¹.

In the case of A15U G29C G40U, the “self-cleavage kobs at 2500 uM GlcN6P” value amounted to 3.13e-05 ± 1.2e-05 s⁻¹.

In the case of U46A U56A C67G, the “self-cleavage kobs at 2500 uM GlcN6P” value came to 0.000143 ± 6.8e-05 s⁻¹.

Regarding A39U A52C C67G U69G, the “self-cleavage kobs at 2500 uM GlcN6P” value was less than 1e-05 s⁻¹.

As for C16U U57A C70A, the “self-cleavage kobs at 2500 uM GlcN6P” value was found to be 8.78e-05 ± 3.6e-05 s⁻¹.

Regarding C34U C67G C68G, the “self-cleavage kobs at 2500 uM GlcN6P” value was 0.000147 ± 3.9e-05 s⁻¹.

With G7A A12G G40U A48G A52C C67U, the “self-cleavage kobs at 2500 uM GlcN6P” value is less than 1e-05 s⁻¹.

Consider A6G C16U G40C U46A G66U, for which the “self-cleavage kobs at 2500 uM GlcN6P” value was less than 1e-05 s⁻¹.

Turning to A52C C58A C70U, the “self-cleavage kobs at 2500 uM GlcN6P” value was less than 1e-05 s⁻¹.

On to G37U A52U C71U, for which the “self-cleavage kobs at 2500 uM GlcN6P” value is less than 1e-05 s⁻¹.

On to A39C G60C C67G, for which the “self-cleavage kobs at 2500 uM GlcN6P” value is less than 1e-05 s⁻¹.

In the case of C10G G38U, the “self-cleavage kobs at 2500 uM GlcN6P” value was less than 1e-05 s⁻¹.

For the variant A6U G41C U65A G66C, the “self-cleavage kobs at 2500 uM GlcN6P” value is less than 1e-05 s⁻¹.

In the case of G9U G38C U54G G62C, the “self-cleavage kobs at 2500 uM GlcN6P” value was less than 1e-05 s⁻¹.

As for A53G C58U, the “self-cleavage kobs at 2500 uM GlcN6P” value turned out to be 1.96e-05 ± 7.8e-06 s⁻¹.

Take A6C U46C U49C G63A: the “self-cleavage kobs at 2500 uM GlcN6P” value was less than 1e-05 s⁻¹.

Turning to A15C U47G C68G, the “self-cleavage kobs at 2500 uM GlcN6P” value is 5.59e-05 ± 1.6e-05 s⁻¹.

As for A15C U30C C68G, the “self-cleavage kobs at 2500 uM GlcN6P” value is 0.000192 ± 6.4e-05 s⁻¹.

A42G G44A G51U: the “self-cleavage kobs at 2500 uM GlcN6P” value is less than 1e-05 s⁻¹.

A12C C58U G60U: the “self-cleavage kobs at 2500 uM GlcN6P” value was less than 1e-05 s⁻¹.

For the variant A6G G29C A33C U47G, the “self-cleavage kobs at 2500 uM GlcN6P” value is less than 1e-05 s⁻¹.

Regarding U31G G32U U45A C71U, the “self-cleavage kobs at 2500 uM GlcN6P” value is 0.000679 ± 0.00029 s⁻¹.

As for A39U A53U C70G, the “self-cleavage kobs at 2500 uM GlcN6P” value stood at 0.0003 ± 7.6e-05 s⁻¹.

Regarding A14G U30C U47A, the “self-cleavage kobs at 2500 uM GlcN6P” value worked out at 0.000323 ± 8.4e-05 s⁻¹.

For the variant C16U G32A G41A, the “self-cleavage kobs at 2500 uM GlcN6P” value was 0.000133 ± 2.7e-05 s⁻¹.

Consider A12U G32U G43C, for which the “self-cleavage kobs at 2500 uM GlcN6P” value was less than 1e-05 s⁻¹.

A6U C11G G44C C68G: the “self-cleavage kobs at 2500 uM GlcN6P” value is less than 1e-05 s⁻¹.

With A53C U57G C67U, the “self-cleavage kobs at 2500 uM GlcN6P” value is 8.03e-05 ± 2.5e-05 s⁻¹.

In the next series the parent is B1. Description: self-cleavage kobs at 10000 uM GlcN6P; higher = faster cleavage; RNA array. The conditions noted are these: with glucosamine-6-phosphate. Summed up: as §1
In the case of C11A U47G, the “self-cleavage kobs at 10000 uM GlcN6P” value amounted to 5.18e-05 ± 1.5e-05 s⁻¹.

As to A14G C16U A39U, the “self-cleavage kobs at 10000 uM GlcN6P” value was found to be 0.0817 ± 0.036 s⁻¹.

In the case of A12G G32C, the “self-cleavage kobs at 10000 uM GlcN6P” value is 3.88e-05 ± 7.6e-06 s⁻¹.

In the case of C8U U54A U69A, the “self-cleavage kobs at 10000 uM GlcN6P” value was 0.00115 ± 0.00055 s⁻¹.

Turning to A15G G44C, the “self-cleavage kobs at 10000 uM GlcN6P” value is 0.000166 ± 3.2e-05 s⁻¹.

On to G9C G38A A52U, for which the “self-cleavage kobs at 10000 uM GlcN6P” value is less than 1e-05 s⁻¹.

As to A6G A52C U65G, the “self-cleavage kobs at 10000 uM GlcN6P” value was less than 1e-05 s⁻¹.

G32U C34A G43C C71G: the “self-cleavage kobs at 10000 uM GlcN6P” value was less than 1e-05 s⁻¹.

Turning to G29A A52G C67G, the “self-cleavage kobs at 10000 uM GlcN6P” value was found to be 5.89e-05 ± 1.1e-05 s⁻¹.

With G13U U47A U56G, the “self-cleavage kobs at 10000 uM GlcN6P” value amounted to 0.000374 ± 6.2e-05 s⁻¹.

Take G35C A52C C58U: the “self-cleavage kobs at 10000 uM GlcN6P” value was less than 1e-05 s⁻¹.

In the case of A14C G43C G51A U56G, the “self-cleavage kobs at 10000 uM GlcN6P” value was less than 1e-05 s⁻¹.

U46A U56A C67G: the “self-cleavage kobs at 10000 uM GlcN6P” value is 0.000316 ± 7.6e-05 s⁻¹.

Take A53G C58U: the “self-cleavage kobs at 10000 uM GlcN6P” value came to 0.000105 ± 9.8e-06 s⁻¹.

For the variant A42G G44A G51U, the “self-cleavage kobs at 10000 uM GlcN6P” value was less than 1e-05 s⁻¹.

Turning to A39U A53U C70G, the “self-cleavage kobs at 10000 uM GlcN6P” value turned out to be 0.000276 ± 5e-05 s⁻¹.

For the variant A14G U30C U47A, the “self-cleavage kobs at 10000 uM GlcN6P” value was found to be 0.000556 ± 8e-05 s⁻¹.

With C16U G32A G41A, the “self-cleavage kobs at 10000 uM GlcN6P” value stood at 0.00033 ± 9.1e-05 s⁻¹.
